Assay results from ChEMBL document CHEMBL1142886, “Substrate specificity analysis and inhibitor design of homoisocitrate dehydrogenase” (Bioorg Med Chem, 2007).

Legend:
[1] = substrate: C=CCCC[C@H](C(=O)O)[C@@H](O)C(=O)O; experiment: (§1) Activity of recombinant Saccharomyces cerevisiae homoisocitrate dehydrogenase expressed in Escherichia coli Rosetta cells
[2] = substrate: C=CC[C@H](C(=O)O)[C@@H](O)C(=O)O; experiment: as §1
[3] = substrate: C=C[C@H](C(=O)O)[C@@H](O)C(=O)O; experiment: as §1
[4] = substrate: CCCCC[C@H](C(=O)O)[C@@H](O)C(=O)O; experiment: as §1
[5] = substrate: CCC[C@H](C(=O)O)[C@@H](O)C(=O)O; experiment: as §1
[6] = substrate: CC[C@H](C(=O)O)[C@@H](O)C(=O)O; experiment: as §1
[7] = substrate: C[C@H](C(=O)O)[C@@H](O)C(=O)O; experiment: as §1
[8] = substrate: O=C(O)CCCC[C@H](C(=O)O)[C@@H](O)C(=O)O; experiment: as §1
[9] = substrate: O=C(O)CCC[C@H](C(=O)O)[C@@H](O)C(=O)O; experiment: as §1
[10] = substrate: O=C(O)CC[C@H](C(=O)O)[C@@H](O)C(=O)O; experiment: as §1
[11] = substrate: O=C(O)[C@@H](CCCCO)[C@@H](O)C(=O)O; experiment: as §1
[12] = substrate: O=C(O)[C@@H](CCCO)[C@@H](O)C(=O)O; experiment: as §1
[13] = substrate: O=C(O)[C@@H](CCO)[C@@H](O)C(=O)O; experiment: as §1
[14] = substrate: C=CCCC[C@H](C(=O)O)[C@@H](O)C(=O)O; experiment: (§2) Ratio of kcat/km of recombinant Saccharomyces cerevisiae homoisocitrate dehydrogenase expressed in Escherichia coli Rosetta cells above 10 mM
[15] = substrate: C=CC[C@H](C(=O)O)[C@@H](O)C(=O)O; experiment: as §2
[16] = substrate: C=C[C@H](C(=O)O)[C@@H](O)C(=O)O; experiment: as §2
[17] = substrate: CCCCC[C@H](C(=O)O)[C@@H](O)C(=O)O; experiment: as §2
[18] = substrate: CCC[C@H](C(=O)O)[C@@H](O)C(=O)O; experiment: as §2
[19] = substrate: CC[C@H](C(=O)O)[C@@H](O)C(=O)O; experiment: as §2
[20] = substrate: C[C@H](C(=O)O)[C@@H](O)C(=O)O; experiment: as §2
[21] = substrate: O=C(O)CCCC[C@H](C(=O)O)[C@@H](O)C(=O)O; experiment: as §2
[22] = substrate: O=C(O)CCC[C@H](C(=O)O)[C@@H](O)C(=O)O; experiment: as §2
[23] = substrate: O=C(O)CC[C@H](C(=O)O)[C@@H](O)C(=O)O; experiment: as §2
[24] = substrate: O=C(O)[C@@H](CCCCO)[C@@H](O)C(=O)O; experiment: as §2
[25] = substrate: O=C(O)[C@@H](CCCO)[C@@H](O)C(=O)O; experiment: as §2
[26] = substrate: O=C(O)[C@@H](CCO)[C@@H](O)C(=O)O; experiment: as §2

B1: Homoisocitrate dehydrogenase, mitochondrial (Saccharomyces cerevisiae S288c), P40495 (protein)
chain: MFRSVATRLSACRGLASNAARKSLTIGLIPGDGIGKEVIPAGKQVLENLNSKHGLSFNFIDLYAGFQTFQETGKALPDETVKVLKEQCQGALFGAVQSPTTKVEGYSSPIVALRREMGLFANVRPVKSVEGEKGKPIDMVIVRENTEDLYIKIEKTYIDKATGTRVADATKRISEIATRRIATIALDIALKRLQTRGQATLTVTHKSNVLSQSDGLFREICKEVYESNKDKYGQIKYNEQIVDSMVYRLFREPQCFDVIVAPNLYGDILSDGAAALVGSLGVVPSANVGPEIVIGEPCHGSAPDIAGKGIANPIATIRSTALMLEFLGHNEAAQDIYKAVDANLREGSIKTPDLGGKASTQQVVDDVLSRL
Km [1]: 9400 µM | kcat [1]: 0.14 s⁻¹ | Km [2]: 410 µM | kcat [2]: 0.34 s⁻¹ | Km [3]: 3400 µM | kcat [3]: 0.5 s⁻¹ | Km [4]: 7200 µM | kcat [4]: 0.11 s⁻¹ | Km [5]: 290 µM | kcat [5]: 0.7 s⁻¹ | Km [6]: 600 µM | kcat [6]: 0.61 s⁻¹ | Km [7]: 5700 µM | kcat [7]: 0.32 s⁻¹ | Km [8]: 170 µM | kcat [8]: 3.1 s⁻¹ | Km [9]: 26 µM | kcat [9]: 1.6 s⁻¹ | Km [10]: 18 µM | kcat [10]: 17 s⁻¹ | Km [11]: 440 µM | kcat [11]: 2.1 s⁻¹ | Km [12]: 580 µM | kcat [12]: 4.8 s⁻¹ | Km [13]: 2100 µM | kcat [13]: 0.78 s⁻¹ | kcat/Km [14]: 15 M⁻¹ s⁻¹ | kcat/Km [15]: 830 M⁻¹ s⁻¹ | kcat/Km [16]: 150 M⁻¹ s⁻¹ | kcat/Km [17]: 15 M⁻¹ s⁻¹ | kcat/Km [18]: 2400 M⁻¹ s⁻¹ | kcat/Km [19]: 1000 M⁻¹ s⁻¹ | kcat/Km [20]: 56 M⁻¹ s⁻¹ | kcat/Km [21]: 18000 M⁻¹ s⁻¹ | kcat/Km [22]: 62000 M⁻¹ s⁻¹ | kcat/Km [23]: 940000 M⁻¹ s⁻¹ | kcat/Km [24]: 4800 M⁻¹ s⁻¹ | kcat/Km [25]: 8300 M⁻¹ s⁻¹ | kcat/Km [26]: 370 M⁻¹ s⁻¹
